# Reference: the supplement of paper PMC10567573
# B1: CD207 (parent)
# chain: MTVEKEAPDAHFTVDKQNISLWPR
# Variants of: B1
# Assay: protein stability index of a GFP-peptide fusion (GPS, HEK-293T) (PSI 1-6); higher = more stable
# Conditions: c terminus: a fixed tail appended
# 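Note: lentivirally expressed fusions sorted by FACS into six bins by GFP to DsRed ratio, PSI derived from sequencing read proportions per bin multiplied by bin number.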
row,Variant,protein stability index
1,MTVEMEAPDAHFTVDKQNISLWPR [K5M],2.04
2,MTVEDEAPDAHFTVDKQNISLWPR [K5D],3.48
3,MTVEGEAPDAHFTVDKQNISLWPR [K5G],3.79
4,MTVEYEAPDAHFTVDKQNISLWPR [K5Y],1.99
5,MTVESEAPDAHFTVDKQNISLWPR [K5S],3.04
6,MTVENEAPDAHFTVDKQNISLWPR [K5N],3.13
7,MTVECEAPDAHFTVDKQNISLWPR [K5C],2.58
8,MTVEFEAPDAHFTVDKQNISLWPR [K5F],2.02
9,MTVEPEAPDAHFTVDKQNISLWPR [K5P],3.48
10,MTVEEEAPDAHFTVDKQNISLWPR [K5E],4.03
11,MTVEWEAPDAHFTVDKQNISLWPR [K5W],2.04
12,MTVETEAPDAHFTVDKQNISLWPR [K5T],2.89
13,MTVEAEAPDAHFTVDKQNISLWPR [K5A],2.96
14,MTVEHEAPDAHFTVDKQNISLWPR [K5H],3.27
15,MTVEIEAPDAHFTVDKQNISLWPR [K5I],1.95
16,MTVELEAPDAHFTVDKQNISLWPR [K5L],1.86
17,MTVEREAPDAHFTVDKQNISLWPR [K5R],2.94
18,MTVEVEAPDAHFTVDKQNISLWPR [K5V],1.53
19,MTVEKEAPDAMFTVDKQNISLWPR [H11M],2.88
20,MTVEKEAPDAIFTVDKQNISLWPR [H11I],2.89
21,MTVEKEAPDAEFTVDKQNISLWPR [H11E],4.08
22,MTVEKEAPDALFTVDKQNISLWPR [H11L],3
23,MTVEKEAPDADFTVDKQNISLWPR [H11D],3.58
24,MTVEKEAPDAKFTVDKQNISLWPR [H11K],3.4

row,Variant,protein stability index
1,MTVEKEAPDANFTVDKQNISLWPR [H11N],3.68
2,MTVEKEAPDAGFTVDKQNISLWPR [H11G],3.06
3,MTVEKEAPDAQFTVDKQNISLWPR [H11Q],2.95
4,MTVEKEAPDARFTVDKQNISLWPR [H11R],2.79
5,MTVEKEAPDATFTVDKQNISLWPR [H11T],3.8
6,MTVEKEAPDACFTVDKQNISLWPR [H11C],3.01
7,MTVEKEAPDAYFTVDKQNISLWPR [H11Y],2.28
8,MTVEKEAPDAVFTVDKQNISLWPR [H11V],3.55
9,MTVEKEAPDAPFTVDKQNISLWPR [H11P],3.55
10,MTVEKEAPDASFTVDKQNISLWPR [H11S],3.58
11,MTVEKEAPDAWFTVDKQNISLWPR [H11W],1.97
12,MTVEKEAPDAAFTVDKQNISLWPR [H11A],3.38
13,MTVEKDAPDAHFTVDKQNISLWPR [E6D],3.31
14,MTVEKPAPDAHFTVDKQNISLWPR [E6P],3.14
15,MTVEKIAPDAHFTVDKQNISLWPR [E6I],2.37
16,MTVEKTAPDAHFTVDKQNISLWPR [E6T],3.08
17,MTVEKAAPDAHFTVDKQNISLWPR [E6A],3.21
18,MTVEKGAPDAHFTVDKQNISLWPR [E6G],3.27
19,MTVEKQAPDAHFTVDKQNISLWPR [E6Q],3.25
20,MTVEKHAPDAHFTVDKQNISLWPR [E6H],2.83
21,MTVEKLAPDAHFTVDKQNISLWPR [E6L],2.72
22,MTVEKCAPDAHFTVDKQNISLWPR [E6C],2.32
23,MTVEKNAPDAHFTVDKQNISLWPR [E6N],3.23
24,MTVEKYAPDAHFTVDKQNISLWPR [E6Y],2.38

row,Variant,protein stability index
1,MTVEKFAPDAHFTVDKQNISLWPR [E6F],2.27
2,MTVEKMAPDAHFTVDKQNISLWPR [E6M],2.52
3,MTVEKWAPDAHFTVDKQNISLWPR [E6W],2.29
4,MTVEKRAPDAHFTVDKQNISLWPR [E6R],2.74
5,MTVEKKAPDAHFTVDKQNISLWPR [E6K],3.47
6,MTVEKSAPDAHFTVDKQNISLWPR [E6S],3.01
7,MTVEKVAPDAHFTVDKQNISLWPR [E6V],2.05
8,MTVIKEAPDAHFTVDKQNISLWPR [E4I],2.56
9,MTVAKEAPDAHFTVDKQNISLWPR [E4A],3.17
10,MTVYKEAPDAHFTVDKQNISLWPR [E4Y],2.43
11,MTVLKEAPDAHFTVDKQNISLWPR [E4L],2.79
12,MTVTKEAPDAHFTVDKQNISLWPR [E4T],2.77
13,MTVVKEAPDAHFTVDKQNISLWPR [E4V],3.38
14,MTVNKEAPDAHFTVDKQNISLWPR [E4N],2.86
15,MTVFKEAPDAHFTVDKQNISLWPR [E4F],2.28
16,MTVPKEAPDAHFTVDKQNISLWPR [E4P],3.18
17,MTVQKEAPDAHFTVDKQNISLWPR [E4Q],3.92
18,MTVWKEAPDAHFTVDKQNISLWPR [E4W],1.99
19,MTVDKEAPDAHFTVDKQNISLWPR [E4D],3.67
20,MTVMKEAPDAHFTVDKQNISLWPR [E4M],3.2
21,MTVCKEAPDAHFTVDKQNISLWPR [E4C],3.11
22,MTVRKEAPDAHFTVDKQNISLWPR [E4R],3.02
23,MTVGKEAPDAHFTVDKQNISLWPR [E4G],3.37
24,MTVSKEAPDAHFTVDKQNISLWPR [E4S],3.68

row,Variant,protein stability index
1,MTVHKEAPDAHFTVDKQNISLWPR [E4H],3
2,MTVEKEAPLAHFTVDKQNISLWPR [D9L],2.38
3,MTVEKEAPEAHFTVDKQNISLWPR [D9E],3.15
4,MTVEKEAPHAHFTVDKQNISLWPR [D9H],2.89
5,MTVEKEAPSAHFTVDKQNISLWPR [D9S],3.25
6,MTVEKEAPCAHFTVDKQNISLWPR [D9C],3.01
7,MTVEKEAPIAHFTVDKQNISLWPR [D9I],2.19
8,MTVEKEAPKAHFTVDKQNISLWPR [D9K],2.44
9,MTVEKEAPTAHFTVDKQNISLWPR [D9T],2.94
10,MTVEKEAPRAHFTVDKQNISLWPR [D9R],3.13
11,MTVEKEAPQAHFTVDKQNISLWPR [D9Q],3.23
12,MTVEKEAPYAHFTVDKQNISLWPR [D9Y],2.42
13,MTVEKEAPNAHFTVDKQNISLWPR [D9N],3.27
14,MTVEKEAPAAHFTVDKQNISLWPR [D9A],2.79
15,MTVEKEAPMAHFTVDKQNISLWPR [D9M],2.56
16,MTVEKEAPWAHFTVDKQNISLWPR [D9W],2.91
17,MTVEKEAPPAHFTVDKQNISLWPR [D9P],2.95
18,MTVEKEAPGAHFTVDKQNISLWPR [D9G],3.05
19,MTVEKEAPFAHFTVDKQNISLWPR [D9F],2.37
20,MTKEKEAPDAHFTVDKQNISLWPR [V3K],3.79
21,MTWEKEAPDAHFTVDKQNISLWPR [V3W],2.86
22,MTQEKEAPDAHFTVDKQNISLWPR [V3Q],3.42
